{"source": "patent US7981997B2", "about": "“Growth factor which acts through ErbB-4 RTK” (Yeda Research And Development Co., priority 2000, dated 2011)", "molecules": {"B1": {"name": "NRG-4: synthetic refolded mouse EGF-like domain of NRG-4 (residues 4 to 50, SEQ ID NO:2) (peptide, listed as Mus musculus)", "chain": "MPTDHEQPCGPRHRSFCLNGGICYVIPTIPSPFCRCIENYTGARCEEVFLPSSSIPSESNLSAAFVVLAVLLTLTIAALCFLCRKGHLQRASSVQCEISLVETNNTRTRHSHREH"}}, "assay_type_in_all_cases": "binding", "key": {"ErbB-4": {"biological_target": "T1, ErbB-4 (Homo sapiens, UniProt Q15303)", "T1 construct": "expressed in transfected cells; host or cells: CHO (Chinese Hamster Ovary) cells", "T1 sequence (Q15303 26-1308, species assumed)": "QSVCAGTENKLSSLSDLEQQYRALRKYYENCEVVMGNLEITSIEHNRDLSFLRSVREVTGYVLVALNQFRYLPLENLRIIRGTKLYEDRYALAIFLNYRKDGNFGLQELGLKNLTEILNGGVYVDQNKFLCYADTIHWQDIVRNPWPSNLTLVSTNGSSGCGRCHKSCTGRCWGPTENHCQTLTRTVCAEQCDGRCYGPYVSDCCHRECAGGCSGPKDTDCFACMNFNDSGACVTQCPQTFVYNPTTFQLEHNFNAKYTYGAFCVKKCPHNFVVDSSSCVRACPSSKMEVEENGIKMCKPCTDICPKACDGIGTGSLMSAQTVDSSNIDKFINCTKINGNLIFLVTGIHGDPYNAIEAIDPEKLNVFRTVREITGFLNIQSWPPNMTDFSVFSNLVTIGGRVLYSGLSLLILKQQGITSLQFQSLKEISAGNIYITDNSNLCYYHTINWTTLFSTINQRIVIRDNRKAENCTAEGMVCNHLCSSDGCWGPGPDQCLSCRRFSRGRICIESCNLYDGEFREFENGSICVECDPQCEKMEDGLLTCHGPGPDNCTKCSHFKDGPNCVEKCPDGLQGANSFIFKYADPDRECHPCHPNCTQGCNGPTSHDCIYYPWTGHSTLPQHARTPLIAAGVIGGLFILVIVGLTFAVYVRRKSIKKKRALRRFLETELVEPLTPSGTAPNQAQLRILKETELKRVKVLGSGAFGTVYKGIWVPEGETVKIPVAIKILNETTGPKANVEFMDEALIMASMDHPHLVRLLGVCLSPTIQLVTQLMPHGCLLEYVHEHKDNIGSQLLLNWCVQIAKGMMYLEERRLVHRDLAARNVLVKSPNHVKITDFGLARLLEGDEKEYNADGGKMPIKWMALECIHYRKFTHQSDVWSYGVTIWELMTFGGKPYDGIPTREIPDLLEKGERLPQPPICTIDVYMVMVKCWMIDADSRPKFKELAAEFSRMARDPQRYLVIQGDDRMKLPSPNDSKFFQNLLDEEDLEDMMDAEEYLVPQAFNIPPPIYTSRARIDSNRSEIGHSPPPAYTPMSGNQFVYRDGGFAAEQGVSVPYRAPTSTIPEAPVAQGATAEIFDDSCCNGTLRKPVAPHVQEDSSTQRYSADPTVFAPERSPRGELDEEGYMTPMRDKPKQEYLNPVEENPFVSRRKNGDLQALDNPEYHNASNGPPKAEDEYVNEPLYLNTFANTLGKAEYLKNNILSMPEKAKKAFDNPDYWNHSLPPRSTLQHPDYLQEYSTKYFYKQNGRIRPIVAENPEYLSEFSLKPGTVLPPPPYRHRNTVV", "test": "Ligand displacement analysis of radiolabeled NRG-1β on ErbB-4-expressing CHO cells", "conditions": "displacement of surface-bound radiolabeled NRG-1β", "experimental": "Displacement analyses of radiolabeled NRG-1β were performed with CHO cells expressing ErbB-4. Cell monolayers (2×10^5 cells) were incubated for 2 hours at 4° C. with a radiolabeled NRG-1 (5 ng/ml) in the presence of increasing concentrations of an unlabeled NRG-4 (closed triangles), or NRG-1β (closed squares). Each data point represents the mean and range (bars) of two determinations.\n(§1) Growth factors were labeled with Iodogen (Pierce) as described (Karunagaran et al., 1995). Chemical crosslinking to Chinese Hamster Ovary (CHO) cells engineered to express different ErbB combinations have been performed essentially as described (Tzahar et al., 1996). Briefly, radiolabeled ligands (at 100 ng/ml) were incubated for 2 hours with cell monolayers at 4 C. The chemical crosslinking agent BS^3 (1 mM) was then added and the cells were further incubated for 45 minutes at 22 C. […] Non-specific binding was determined in the presence of a 100-fold molar excess of the unlabeled ligani. Cells were then washed, lysed in a solution containing 0.1 M NaOH and 0.1% SDS, and radioactivity determined by use of a gamma counter.\nTaken together, the biological effects of NRG-4 and its complex formation with ErbB-4 implied not only specificity of recognition, but also weaker interaction relative to NRG-1. To quantify the interaction, a ligand displacement analysis on ErbB-4-expressing CHO cells was undertaken. […]"}, "IgB-2 (soluble ErbB-2)": {"biological_target": "T2, IgB-2 (soluble ErbB-2) (Homo sapiens, UniProt P04626)", "T2 construct": "Recombinant soluble extracellular domains of the four ErbB proteins (denoted IgB-1 through 4); made in house; host or cells: HEK-293 human embryonic kidney cells (conditioned medium)", "test": "Covalent crosslinking of radiolabeled ligands to soluble ErbB-IgG fusion, cell-free", "conditions": "125I-labeled ligand, BS3 crosslinking", "experimental": "(§2) The four soluble forms of ErbB proteins, in the form of IgG fusions (denoted IgB-1 through 4), were separately incubated with the indicated radiolabeled growth factors. Where indicated (lower panel), an excess (100-fold) of unlabeled NRG-4 was co-incubated with the labeled ligand. Following 2 hours at 22° C., the covalent crosslinking reagent bis(sulfosuccinimdyl)-suberate (BS^3) was added (1 mM) and 45 minutes later the ligand-receptor complexes were immunoprecipitated with agarose-immobilized protein-A beads. Arrows mark the locations of monomeric (M) and dimeric (D) receptor complexes.\n(§3) Growth factors were labeled with Iodogen (Pierce) as described (Karunagaran et al., 1995). Chemical crosslinking to Chinese Hamster Ovary (CHO) cells engineered to express different ErbB combinations have been performed essentially as described (Tzahar et al., 1996). Briefly, radiolabeled ligands (at 100 ng/ml) were incubated for 2 hours with cell monolayers at 4 C. The chemical crosslinking agent BS^3 (1 mM) was then added and the cells were further incubated for 45 minutes at 22 C. Mouse antibodies were first coupled to rabbit anti-mouse IgG and to protein A-Sepharose beads, and then they were incubated with cell extracts for 2 hours at 4 C. Immunoprecipitated complexes were then washed three times with ice-cold SBN buffer (1% NP-40; 150 mM NaCl; 10% Glycerol; 1 mM EGTA, in 50 mM Tris-HCl, pH 7.4; 1 ml per wash) prior to heating (5 minutes at 95 C) in gel sample buffer, resolution by gel electrophoresis, transfer to nitrocellulose and autoradiography. For crosslinking with IgBs, after co-incubation of IgB-containing conditioned media with radiolabeled ligands, complexes were immunoprecipitated directly with Sepharose-protein A beads. For ligand displacement analyses, cell monolayers were washed once with binding buffer, and then incubated for 2 hours at 4 C with radiolabeled […] (5 ng/ml) and various concentrations of unlabeled ligands, as indicated. Non-specific binding was determined in the presence of a 100-fold molar excess of the unlabeled ligani. Cells were then washed, lysed in a solution containing 0.1 M NaOH and 0.1% SDS, and radioactivity determined by use of a gamma counter.\n(§4) In the first assay, binding studies in a cell-free system were performed with recombinant soluble forms of all four ErbB proteins. The soluble proteins, denoted IgB-1 through 4, consist of a dimeric fusion between the extracellular domain of the corresponding ErbB and the Fc portion of a human immunoglobulin G (Chen et al., 1996)."}, "IgB-3 (soluble ErbB-3)": {"biological_target": "T3, IgB-3 (soluble ErbB-3) (Homo sapiens, UniProt P21860)", "T3 construct": "Recombinant soluble extracellular domains of the four ErbB proteins (denoted IgB-1 through 4); made in house; host or cells: HEK-293 human embryonic kidney cells (conditioned medium)", "T3 sequence (P21860 20-643 limits assumed)": "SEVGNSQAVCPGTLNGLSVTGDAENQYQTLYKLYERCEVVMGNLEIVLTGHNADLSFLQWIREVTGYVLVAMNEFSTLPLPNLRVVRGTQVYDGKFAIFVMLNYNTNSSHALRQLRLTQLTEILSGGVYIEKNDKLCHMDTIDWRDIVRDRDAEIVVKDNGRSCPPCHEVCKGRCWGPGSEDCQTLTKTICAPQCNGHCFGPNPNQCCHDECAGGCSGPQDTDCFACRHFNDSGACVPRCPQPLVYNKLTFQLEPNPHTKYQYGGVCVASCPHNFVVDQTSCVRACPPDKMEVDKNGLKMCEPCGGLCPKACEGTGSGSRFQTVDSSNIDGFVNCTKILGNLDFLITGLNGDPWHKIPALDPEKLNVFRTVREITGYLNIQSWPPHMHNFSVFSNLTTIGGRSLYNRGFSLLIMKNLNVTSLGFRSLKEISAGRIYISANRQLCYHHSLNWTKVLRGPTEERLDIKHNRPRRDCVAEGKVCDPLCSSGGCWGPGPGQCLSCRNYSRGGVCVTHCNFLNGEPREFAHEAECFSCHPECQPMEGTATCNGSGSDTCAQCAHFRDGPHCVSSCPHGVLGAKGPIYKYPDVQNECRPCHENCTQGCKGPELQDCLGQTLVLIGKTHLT", "test": "Covalent crosslinking of radiolabeled ligands to soluble ErbB-IgG fusion, cell-free", "conditions": "125I-labeled ligand, BS3 crosslinking", "experimental": "as §2, §3, §4"}, "IgB-4 (soluble ErbB-4)": {"biological_target": "T4, IgB-4 (soluble ErbB-4) (Homo sapiens, UniProt Q15303)", "T4 construct": "Recombinant soluble extracellular domains of the four ErbB proteins (denoted IgB-1 through 4); made in house; host or cells: HEK-293 human embryonic kidney cells (conditioned medium)", "T4 sequence (Q15303 26-651 limits assumed)": "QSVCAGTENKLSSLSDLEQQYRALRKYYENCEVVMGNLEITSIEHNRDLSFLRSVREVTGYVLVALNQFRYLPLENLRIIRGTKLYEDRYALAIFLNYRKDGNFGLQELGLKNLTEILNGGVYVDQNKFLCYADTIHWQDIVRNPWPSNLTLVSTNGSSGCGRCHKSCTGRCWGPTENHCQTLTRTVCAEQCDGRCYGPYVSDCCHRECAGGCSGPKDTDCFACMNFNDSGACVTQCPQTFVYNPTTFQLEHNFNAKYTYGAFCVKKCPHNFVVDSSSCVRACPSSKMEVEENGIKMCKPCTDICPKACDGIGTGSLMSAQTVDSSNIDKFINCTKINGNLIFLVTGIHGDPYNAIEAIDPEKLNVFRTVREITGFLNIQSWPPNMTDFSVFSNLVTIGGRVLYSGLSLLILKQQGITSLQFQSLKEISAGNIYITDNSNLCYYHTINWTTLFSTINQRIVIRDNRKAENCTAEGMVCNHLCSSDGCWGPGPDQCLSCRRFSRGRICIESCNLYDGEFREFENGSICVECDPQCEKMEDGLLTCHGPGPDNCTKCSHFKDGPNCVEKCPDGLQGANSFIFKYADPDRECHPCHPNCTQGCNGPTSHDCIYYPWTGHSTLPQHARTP", "test": "Covalent crosslinking of radiolabeled ligands to soluble ErbB-IgG fusion, cell-free", "experimental": "as §2, §3, §4"}, "[1]": {"biological_target": "T5, ErbB-4 co-expressed with ErbB-2 (Homo sapiens, UniProt Q15303)", "T5 construct": "expressed in transfected cells; host or cells: CHO (Chinese Hamster Ovary) cells, transient co-transfection", "test": "Covalent crosslinking to CHO cells co-transfected with ErbB-4 and ErbB-2", "conditions": "precipitation with anti-ErbB-2 antibodies", "experimental": "CHO cells were transfected with vectors directing expression of the indicated ErbB proteins or their combinations. Two days later cell monolayers were incubated with either ^125I-NRG-1β or ^125I-NRG-4 (EGF-like domains, each at 100 ng/ml). Following 2 hours at 4° C., the covalent crosslinking reagent bis(sulfosuccinimdyl)-suberate (BS^3) was added (1 mM final concentration) and cell extracts prepared after an additional 45 minutes of incubation. The indicated ErbB proteins were then immunoprecipitated with mouse monoclonal antibodies, and the complexes resolved by gel electrophoresis and autoradiography. Arrows mark the locations of monomeric (M) and dimeric (D) receptor complexes.\nas §1, with “C.” for “C. The chemical crosslinking agent BS^3 (1 mM) was then added and the cells were further incubated for 45 minutes at 22 C.”, “counter. […]” for “counter.”"}}, "data": [{"molecule": "B1", "values": [{"measurement": "lower binding affinity to ErbB-4 compared with unlabeled NRG-1", "setting": "ErbB-4", "result": "approximately 8 fold"}, {"measurement": "binding to IgB-2 (covalent crosslinking signal)", "setting": "IgB-2 (soluble ErbB-2)", "result": "low or no binding"}, {"measurement": "binding to IgB-3 (covalent crosslinking signal)", "setting": "IgB-3 (soluble ErbB-3)", "result": "low or no binding"}, {"measurement": "binding to IgB-4 (covalent crosslinking signal)", "setting": "IgB-4 (soluble ErbB-4); 125I-labeled ligand, BS3 crosslinking", "result": "only weakly"}, {"measurement": "displacement of the radioactive ligand from IgB-4 by unlabeled NRG-4", "setting": "IgB-4 (soluble ErbB-4); unlabeled NRG-4 at 100-fold molar excess", "result": "efficient displacement"}, {"measurement": "heterodimers of ErbB-4 with ErbB-2", "setting": "[1]", "result": "existence of NRG-4-promoted heterodimers"}]}]}
